Laboratory results published in patent US20190010233A1 (JIANGSU HYAMAB PHARMACEUTICAL, published 2019).
Like-named read-outs stand apart in the source and are kept apart here.

Assays:
[1] = target: T1, full length cyno PD-L1 on cells (cyno, UniProt G7PSE7 19-290); assay: FACS CHO-K1-cPD-L1, 30 nM mAb
T1 construct: also called CHO-K1-cPD-L1

[2] = target: T2, human PD-L1^ECD-hFc protein (human, UniProt Q9NZQ7 19-239, biotinylated in the PD-1 binding ELISA (Table 3) and in the Octet assay (Table 12)); assay: ELISA receptor-ligand blocking assay: PD-L1 protein coated, fully human antibody titrated, blocked ligand PD-1, inhibition rate (%)
T2 construct: The plain and the biotinylated protein are kept as one molecule; also called PD-L1-hFc; Immunogen A; not shown: human IgG Fc fragment (hFc)
T2 sequence (Q9NZQ7 19-239): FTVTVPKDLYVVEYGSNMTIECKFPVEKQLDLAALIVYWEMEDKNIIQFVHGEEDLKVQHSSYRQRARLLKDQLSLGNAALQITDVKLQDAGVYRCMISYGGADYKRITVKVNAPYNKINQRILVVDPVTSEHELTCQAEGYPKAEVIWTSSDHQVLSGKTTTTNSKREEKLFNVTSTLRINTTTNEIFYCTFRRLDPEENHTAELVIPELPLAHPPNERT

[3] = target: T3, full length human PD-L1 on cells (human, UniProt Q9NZQ7 19-290); assay: cell-based or functional assay
T3 sequence (Q9NZQ7 19-290 limits assumed): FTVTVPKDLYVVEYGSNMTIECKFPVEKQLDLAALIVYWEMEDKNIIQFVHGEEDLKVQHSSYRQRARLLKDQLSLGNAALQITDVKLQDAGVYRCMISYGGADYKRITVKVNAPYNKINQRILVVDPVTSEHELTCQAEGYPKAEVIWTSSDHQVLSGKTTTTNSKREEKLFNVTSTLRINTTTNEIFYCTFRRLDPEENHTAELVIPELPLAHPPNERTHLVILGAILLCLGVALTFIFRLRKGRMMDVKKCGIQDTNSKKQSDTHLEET

[4] = target: T3, full length human PD-L1 on cells; assay: FACS CHOK1-hPD-L1, 0.3 nM mAb
[5] = target: T1, full length cyno PD-L1 on cells; assay: FACS CHO-K1-cPD-L1, 0.3 nM mAb
[6] = target: T1, full length cyno PD-L1 on cells; assay: FACS CHO-K1-cPD-L1, 0.003 nM mAb
[7] = target: T1, full length cyno PD-L1 on cells; assay: FACS CHO-K1-cPD-L1, 0.03 nM mAb
[8] = target: T3, full length human PD-L1 on cells; assay: FACS CHOK1-hPD-L1, 0.003 nM mAb
[9] = target: T1, full length cyno PD-L1 on cells; assay: FACS CHO-K1-cPD-L1, 3 nM mAb
[10] = target: T3, full length human PD-L1 on cells; assay: FACS CHOK1-hPD-L1, 3 nM mAb
[11] = target: T3, full length human PD-L1 on cells; assay: cell-based or functional assay; remark: listed apart in the source
[12] = target: T4, recombinant His-tagged hPD-L1 ECD protein (human, UniProt Q9NZQ7 19-239); assay: SPR Biacore T200, mAb captured by anti-human Fc, His-tagged hPD-L1 ECD as analyte, 1:1 model
T4 construct: also called His-tagged human PD-L1 ECD protein; His-tagged PD-L1^ECD; not shown: His tag
T4 sequence (Q9NZQ7 19-239): as the sequence (Q9NZQ7 19-239) above
Procedure: Anti-human Fc IgG was immobilized on flow cells 1 and 2: HBS-EP+ (10 mM HEPES, 150 mM NaCl, 3 mM EDTA, 0.05% P20, pH 7.4) was used as miming buffer, and the immobilization of anti-human Fc IgG was carried out using the immobilization wizard template. Flow cells 1 and 2 of a Series S CM5 sensor chip were activated with freshly-mixed 50 mmol/L NHS and 200 mmol/L EDC. 20 μg/mL of anti-human Fc IgG diluted in 10 mM NaAC (pH 4.5) was injected into the activated flow cells 1 and 2. The remaining active coupling sites were blocked with 1M ethanolamine.
KD measurements were carried out with HBS-EP+ as the running buffer. Each antibody was injected over the CM5 sensor flow cell 2 with a flow rate of 10 μL/min to reach response 230 RU. […] Buffer flow was maintained for 400 seconds for dissociation measurements (30 μL/min). To remove the tested antibody from the surface, 10 mM glycine-HCl pH 1.5 was injected for 20 seconds (30 μL/min). Flow cell 1 was used as reference flow cell. The above steps were repeated for each concentration of serially-diluted His-tagged PD-L1^ECD protein. The KD value for each antibody was evaluated using Biacore T200 evaluation software 1.0, and the data was fit with a 1:1 binding model.

[13] = target: T3, full length human PD-L1 on cells; assay: cell-based or functional assay; remark: listed apart in the source
[14] = target: T3, full length human PD-L1 on cells; assay: FACS CHOK1-hPD-L1, 0.0003 nM mAb
[15] = target: T3, full length human PD-L1 on cells; assay: FACS CHOK1-hPD-L1, 30 nM mAb
[16] = target: T1, full length cyno PD-L1 on cells; assay: FACS CHO-K1-cPD-L1, 300 nM mAb
[17] = target: T3, full length human PD-L1 on cells; assay: FACS CHOK1-hPD-L1, 0.03 nM mAb
[18] = target: T3, full length human PD-L1 on cells; assay: FACS CHOK1-hPD-L1, 300 nM mAb
[19] = target: T2, human PD-L1^ECD-hFc protein; assay: ELISA receptor-ligand blocking assay: PD-L1 protein coated, fully human antibody titrated, blocked ligand B7.1, inhibition rate (%)
[20] = target: T1, full length cyno PD-L1 on cells; assay: FACS CHO-K1-cPD-L1, 0.0003 nM mAb
[21] = target: T3, full length human PD-L1 on cells; assay: cell-based or functional assay; remark: listed apart in the source

T1 sequence (G7PSE7 entry or part of it limits assumed): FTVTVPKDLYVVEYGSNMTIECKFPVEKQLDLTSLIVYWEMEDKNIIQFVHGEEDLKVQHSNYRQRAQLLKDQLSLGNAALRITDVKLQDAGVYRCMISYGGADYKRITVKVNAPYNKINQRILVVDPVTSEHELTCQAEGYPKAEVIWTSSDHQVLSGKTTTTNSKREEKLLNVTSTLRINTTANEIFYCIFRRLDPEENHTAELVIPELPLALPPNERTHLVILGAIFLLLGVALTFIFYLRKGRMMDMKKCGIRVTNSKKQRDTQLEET

Binder	Mean fluorescence intensity [1]	IC50 (read off the curve) [2] [nM]	Mean fluorescence intensity [4]	Mean fluorescence intensity [5]	Mean fluorescence intensity [6]	Mean fluorescence intensity [7]	Mean fluorescence intensity [8]	Mean fluorescence intensity [9]	Mean fluorescence intensity [10]	IFN-γ (pg/mL), MLR, 0.001 µg/mL mAb [13] [pg/mL]	IFN-γ (pg/mL), MLR, 0.01 µg/mL mAb [13] [pg/mL]	IFN-γ (pg/mL), MLR, 0.1 µg/mL mAb [13] [pg/mL]	IFN-γ (pg/mL), MLR, 1 µg/mL mAb [13] [pg/mL]	IFN-γ (pg/mL), MLR, 10 µg/mL mAb [13] [pg/mL]	Mean fluorescence intensity [14]	Mean fluorescence intensity [15]	Mean fluorescence intensity [16]	Mean fluorescence intensity [17]	Mean fluorescence intensity [18]	IC50 (read off the curve) [19] [nM]	other results
fully human anti-PD-L1 antibody 78A11F6 (antibody, human IgG4 S228P, kappa, V domains shown, also called 78A11F6 (fully human)) VH: EVQLVESGGGLVQPGGSLRLSCAASGITFSSYWMSWVRQTPGKGLEWVANIKQDGSEKYYVKSVKGRFTISRDNAKNSLYLQMNSLRAEDTAVYYCVRDRAVPGTGAFDIWGQGTMVIVSS VL: DIQMTQSPSTLSASVGDRVTITCRASQSISNWLAWYQQKPGKAPKLLIYKASSLESGVPSRFSGSGSGTEFTLTISSLQPDDFATYYCQQYDSSLFTFGQGTKLEIKR	529	~0.7	217	243	8.94	64.1	10.4	521	619	1080	1650	3010	3760	3400	6.53	620	538	36.5	633	~0.7	IFN-γ (pg/mL), T cell stimulation assay, 0.001 µg/mL mAb [3]: 4030 pg/mL; IFN-γ (pg/mL), T cell stimulation assay, 0.01 µg/mL mAb [3]: 9200 pg/mL; IFN-γ (pg/mL), T cell stimulation assay, 0.1 µg/mL mAb [3]: 9840 pg/mL; IFN-γ (pg/mL), T cell stimulation assay, 1 µg/mL mAb [3]: 9960 pg/mL; IFN-γ (pg/mL), T cell stimulation assay, 10 µg/mL mAb [3]: 12500 pg/mL; IL-2 (pg/mL), MLR, 0.001 µg/mL mAb [11]: 210 pg/mL; IL-2 (pg/mL), MLR, 0.01 µg/mL mAb [11]: 283 pg/mL; IL-2 (pg/mL), MLR, 0.1 µg/mL mAb [11]: 730 pg/mL; IL-2 (pg/mL), MLR, 1 µg/mL mAb [11]: 736 pg/mL; IL-2 (pg/mL), MLR, 10 µg/mL mAb [11]: 842 pg/mL; Kd [12]: 0.643 nM; koff [12]: 0.000472 s⁻¹; kon [12]: 734000 M⁻¹ s⁻¹; Mean fluorescence intensity [20]: 5.47
fully human anti-PD-L1 antibody 105C5D7 (antibody, V domains shown, also called 105C5D7 (fully human)) VH: EVQLVESGGGLVQPGGSLRLSCAASGFTFSSYWMSWVRQAPGKGLEWVANIKQDGNEKYYVDSVKGRFTISRDNAKNSLYLQMNSLRAEDTAVYYCARNIKWGDAFDIWGQGTMVTVSS VL: DIQMTQSPSSLSASVGDRVTITCRASQSISSYLNWYQQKPGKAPKLLIYAASSLQSGVPSRFSGSGSGTDFTLTISSLQPEDFAIYSCQQSYSIPLTFGGGTKVEIKR	335	~2	116	107	9.85	18.8	7.3	375	435	1880	2580	4930	4280	5260	6.61	380	299	23.1	382	~2	IL-2 (pg/mL), MLR, 0.001 µg/mL mAb [21]: 43 pg/mL; IL-2 (pg/mL), MLR, 0.01 µg/mL mAb [21]: 92.2 pg/mL; IL-2 (pg/mL), MLR, 0.1 µg/mL mAb [21]: 118 pg/mL; IL-2 (pg/mL), MLR, 1 µg/mL mAb [21]: 148 pg/mL; Mean fluorescence intensity [20]: 5.31
